The data set relates to Escherichia coli TOP10. The data set can be described thus: shrunken log2 fold change of peptide-encoding DNA abundance (4.5 h post-induction vs induction); higher = less antimicrobial activity (less host growth inhibition). Particulars: time post-induction: 4.5 h; library: site-saturation at positions 5, 18, 19, 20.
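Also: peptides expressed intracellularly from a pBAD plasmid library in pooled LB shake-flask culture, induced with 0.3% L-arabinose, DNA abundance read by NGS, three biological replicates, DESeq2 with apeglm shrinkage.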

For RRIRYRPPRLPRPRPRPNFVPRP, the “shrunken log2 fold change” value is -0.0161.

For RRIRGRPPRLPRPRPRPSMHPRP, the “shrunken log2 fold change” value is 0.421.

On to RRIRGRPPRLPRPRPRPGWPPRP, for which the “shrunken log2 fold change” value amounted to 1.18.

For the sequence RRIRVRPPRLPRPRPRPILCPRP, the “shrunken log2 fold change” value turned out to be 0.0143.

Regarding RRIRHRPPRLPRPRPRPSTLPRP, the “shrunken log2 fold change” value is -0.0931.

For the sequence RRIRIRPPRLPRPRPRPIDPPRP, the “shrunken log2 fold change” value is -0.142.

As for RRIRYRPPRLPRPRPRPLYGPRP, the “shrunken log2 fold change” value is -0.82.

Regarding RRIRTRPPRLPRPRPRPEGAPRP, the “shrunken log2 fold change” value turned out to be 0.783.

Take RRIRGRPPRLPRPRPRPLLKPRP: the “shrunken log2 fold change” value stood at 1.39.

In the case of RRIRHRPPRLPRPRPRPVGDPRP, the “shrunken log2 fold change” value is -0.206.

Take RRIRRRPPRLPRPRPRPGLNPRP: the “shrunken log2 fold change” value was -0.0395.

Turning to RRIRRRPPRLPRPRPRPQLPPRP, the “shrunken log2 fold change” value was 0.283.

As to RRIRSRPPRLPRPRPRPTMAPRP, the “shrunken log2 fold change” value was found to be 0.173.

On to RRIRLRPPRLPRPRPRPIQNPRP, for which the “shrunken log2 fold change” value is -0.403.

For RRIRVRPPRLPRPRPRPKASPRP, the “shrunken log2 fold change” value was found to be 0.0977.

In the case of RRIRERPPRLPRPRPRPVFTPRP, the “shrunken log2 fold change” value is -0.541.

Turning to RRIRHRPPRLPRPRPRPDPTPRP, the “shrunken log2 fold change” value is -0.0262.

For RRIRGRPPRLPRPRPRPGSAPRP, the “shrunken log2 fold change” value came to 0.972.

On to RRIRARPPRLPRPRPRPNYIPRP, for which the “shrunken log2 fold change” value is -0.414.

For RRIRDRPPRLPRPRPRPNRSPRP, the “shrunken log2 fold change” value came out at 0.0428.

Consider RRIRVRPPRLPRPRPRPGGAPRP, for which the “shrunken log2 fold change” value amounted to 0.603.

Consider RRIRERPPRLPRPRPRPYFWPRP, for which the “shrunken log2 fold change” value is -0.143.

Regarding RRIRHRPPRLPRPRPRPPLLPRP, the “shrunken log2 fold change” value was determined as 0.152.

For the sequence RRIRFRPPRLPRPRPRPEWQPRP, the “shrunken log2 fold change” value is -0.00149.

In the case of RRIRERPPRLPRPRPRPWFVPRP, the “shrunken log2 fold change” value is -0.463.

Turning to RRIRNRPPRLPRPRPRPETYPRP, the “shrunken log2 fold change” value is -0.554.

Turning to RRIRARPPRLPRPRPRPRTGPRP, the “shrunken log2 fold change” value is 0.387.

In the case of RRIRRRPPRLPRPRPRPGFAPRP, the “shrunken log2 fold change” value is 0.315.

As to RRIRIRPPRLPRPRPRPMNQPRP, the “shrunken log2 fold change” value was -0.169.

For the sequence RRIRMRPPRLPRPRPRPYMQPRP, the “shrunken log2 fold change” value is -0.338.

Regarding RRIRKRPPRLPRPRPRPQNKPRP, the “shrunken log2 fold change” value stood at 0.0275.

Consider RRIRARPPRLPRPRPRPMNCPRP, for which the “shrunken log2 fold change” value was -0.116.

As for RRIRGRPPRLPRPRPRPTHCPRP, the “shrunken log2 fold change” value stood at 0.433.

Turning to RRIRYRPPRLPRPRPRPKGAPRP, the “shrunken log2 fold change” value was 0.194.

For the sequence RRIRIRPPRLPRPRPRPPHYPRP, the “shrunken log2 fold change” value is -0.707.

With RRIRPRPPRLPRPRPRPTMIPRP, the “shrunken log2 fold change” value is -0.239.

Consider RRIRARPPRLPRPRPRPNEEPRP, for which the “shrunken log2 fold change” value turned out to be 0.276.

Consider RRIRFRPPRLPRPRPRPEVVPRP, for which the “shrunken log2 fold change” value turned out to be 0.723.

On to RRIRKRPPRLPRPRPRPKDRPRP, for which the “shrunken log2 fold change” value amounted to 0.088.

Turning to RRIRRRPPRLPRPRPRPWGSPRP, the “shrunken log2 fold change” value is -0.186.

RRIRFRPPRLPRPRPRPTFSPRP: the “shrunken log2 fold change” value is -0.0425.

Take RRIRARPPRLPRPRPRPDHMPRP: the “shrunken log2 fold change” value is -0.328.

In the case of RRIRNRPPRLPRPRPRPMGPPRP, the “shrunken log2 fold change” value came to 0.0762.

As to RRIRRRPPRLPRPRPRPFFWPRP, the “shrunken log2 fold change” value is 0.381.

On to RRIRVRPPRLPRPRPRPVDDPRP, for which the “shrunken log2 fold change” value was 0.177.

Regarding RRIRKRPPRLPRPRPRPPAWPRP, the “shrunken log2 fold change” value came to 0.602.

Take RRIRYRPPRLPRPRPRPQTAPRP: the “shrunken log2 fold change” value is -0.0183.

Take RRIRQRPPRLPRPRPRPHMMPRP: the “shrunken log2 fold change” value was -0.526.

Regarding RRIRGRPPRLPRPRPRPGSEPRP, the “shrunken log2 fold change” value came to 0.864.

As to RRIRFRPPRLPRPRPRPLQGPRP, the “shrunken log2 fold change” value turned out to be 0.0475.

On to RRIRVRPPRLPRPRPRPIDLPRP, for which the “shrunken log2 fold change” value was -0.417.

RRIRMRPPRLPRPRPRPITPPRP: the “shrunken log2 fold change” value was found to be 0.0378.

In the case of RRIRIRPPRLPRPRPRPIATPRP, the “shrunken log2 fold change” value was -0.471.

Take RRIRYRPPRLPRPRPRPMYNPRP: the “shrunken log2 fold change” value was -1.23.

On to RRIRARPPRLPRPRPRPGIQPRP, for which the “shrunken log2 fold change” value is -0.041.

Take RRIRTRPPRLPRPRPRPLNCPRP: the “shrunken log2 fold change” value is -0.405.

Turning to RRIRIRPPRLPRPRPRPNTLPRP, the “shrunken log2 fold change” value is -0.818.

Consider RRIRVRPPRLPRPRPRPWNSPRP, for which the “shrunken log2 fold change” value was -0.106.

For the sequence RRIRNRPPRLPRPRPRPVSPPRP, the “shrunken log2 fold change” value is -0.087.

Regarding RRIRDRPPRLPRPRPRPTNAPRP, the “shrunken log2 fold change” value was 0.182.

RRIRFRPPRLPRPRPRPVIHPRP: the “shrunken log2 fold change” value is -0.182.

On to RRIRQRPPRLPRPRPRPTWSPRP, for which the “shrunken log2 fold change” value was 0.136.

In the case of RRIRLRPPRLPRPRPRPLYTPRP, the “shrunken log2 fold change” value was -0.461.

Turning to RRIRQRPPRLPRPRPRPQQEPRP, the “shrunken log2 fold change” value turned out to be 0.0811.

In the case of RRIRNRPPRLPRPRPRPSSTPRP, the “shrunken log2 fold change” value was -0.201.

For the sequence RRIRDRPPRLPRPRPRPTEMPRP, the “shrunken log2 fold change” value is 0.367.

As to RRIRWRPPRLPRPRPRPAIVPRP, the “shrunken log2 fold change” value stood at 0.144.

With RRIRMRPPRLPRPRPRPSLRPRP, the “shrunken log2 fold change” value stood at 0.626.

RRIRYRPPRLPRPRPRPECVPRP: the “shrunken log2 fold change” value was -0.282.

In the case of RRIRKRPPRLPRPRPRPPLNPRP, the “shrunken log2 fold change” value worked out at 0.309.

As to RRIRLRPPRLPRPRPRPNGKPRP, the “shrunken log2 fold change” value was -0.0324.

On to RRIRDRPPRLPRPRPRPKIRPRP, for which the “shrunken log2 fold change” value is -0.0266.

As to RRIRKRPPRLPRPRPRPICEPRP, the “shrunken log2 fold change” value turned out to be 0.115.

As to RRIRVRPPRLPRPRPRPRFNPRP, the “shrunken log2 fold change” value is -0.264.

Take RRIRGRPPRLPRPRPRPPCTPRP: the “shrunken log2 fold change” value is 0.76.

As for RRIRKRPPRLPRPRPRPHIFPRP, the “shrunken log2 fold change” value is -0.0478.

RRIRTRPPRLPRPRPRPMICPRP: the “shrunken log2 fold change” value is -0.0677.

With RRIRNRPPRLPRPRPRPHGKPRP, the “shrunken log2 fold change” value came to 0.0681.

In the case of RRIRKRPPRLPRPRPRPNYLPRP, the “shrunken log2 fold change” value was -0.0798.

For RRIRPRPPRLPRPRPRPFEHPRP, the “shrunken log2 fold change” value stood at 0.0626.

As for RRIRFRPPRLPRPRPRPGDCPRP, the “shrunken log2 fold change” value was -0.0759.

On to RRIRRRPPRLPRPRPRPDDNPRP, for which the “shrunken log2 fold change” value came to 0.18.

In the case of RRIRMRPPRLPRPRPRPPVIPRP, the “shrunken log2 fold change” value was determined as 0.312.

On to RRIRLRPPRLPRPRPRPRRAPRP, for which the “shrunken log2 fold change” value came to 0.585.

Take RRIRIRPPRLPRPRPRPPCRPRP: the “shrunken log2 fold change” value stood at 0.0264.

As for RRIRVRPPRLPRPRPRPHHQPRP, the “shrunken log2 fold change” value is -0.427.

On to RRIRTRPPRLPRPRPRPFEYPRP, for which the “shrunken log2 fold change” value was -0.0571.

Consider RRIRLRPPRLPRPRPRPNVIPRP, for which the “shrunken log2 fold change” value is -0.106.

Turning to RRIRVRPPRLPRPRPRPRNPPRP, the “shrunken log2 fold change” value is 0.148.

For RRIRLRPPRLPRPRPRPIWWPRP, the “shrunken log2 fold change” value turned out to be 0.94.

With RRIRERPPRLPRPRPRPMPFPRP, the “shrunken log2 fold change” value is 0.00529.
